According to US8541373B2, “BChE albumin fusions for the treatment of cocaine abuse” (priority 2009, dated 2013):

Test system: cocaine
Experiment: Plasma cocaine, benzoylecgonine and ecgonine methyl ester (LC-MS) and cocaine PK after IV cocaine post-AlbuBChE
Format: in vivo, cynomolgus monkeys
Details: for Ecgonine methyl ester plasma concentration (mean) / Mean benzoylecgonine plasma concentration / Mean cocaine plasma concentration / Mean benzoylecgonine AUC(0-t) / Mean cocaine AUC % Extrap / Mean cocaine AUC(0-t) / Mean cocaine AUC(0-∞) / Mean cocaine C0 / Mean cocaine CI / Mean cocaine Vss / Mean cocaine t½: 5 mg/kg IM
Method: Blood was placed into K2EDTA blood collection tubes with esterase inhibitor diisopropylfluorophosphate (DFP). Tubes were inverted several times and placed on wet ice upon collection. Samples were centrifuged at 2-8° C. within 45 minutes of collection. The resultant plasma was recovered and a single 200 μL aliquot of plasma was placed into polypropylene tubes. Plasma samples were frozen over dry ice and stored at −75±15° C.
The following outline describes the LC-MS-based assay employed for the measurement of cocaine in plasma samples. Prior to MS analysis, plasma samples, calibration standards and controls were extracted using supported liquid extraction (SLE-ISOLUTE, Biotage). Twenty-five microliters of samples (25 μL) received 150 μl of 5% Ammonium hydroxide and 25 μl internal standard solution (Cocaine-d3). After mixing and transfer to SLE plate, samples were eluted with methylene chloride and evaporated to dryness. After resuspension in 50 μl of reconstitution solution—5% ACM in 10 mM ammonium acetate in water, 10 μl was injected onto Thermo Hypercarb column at 0.5 ml/min. Mobile phase was biphasic. Mass spectrophotometric detection was performed using Api 4000, APCI positive interface and Multiple Reaction Monitoring (MRM). Plasma concentrations of cocaine, benzoylecgonine and ecgonine methyl ester were determined using this assay.
When the data permits, pharmacokinetic parameter values for cocaine and its metabolites were determined using plasma concentration-times profiles for individual animals at all the study days of cocaine administration. […] Specifically the model for non-compartmental analysis with IV bolus input for cocaine and extravascular input for the metabolites.

[1] = cocaine 1 mg/kg IV 48 hr post-AlbuBChE, 10 min after cocaine
[2] = cocaine 1 mg/kg IV 48 hr post-AlbuBChE, 15 min after cocaine
[3] = cocaine 1 mg/kg IV 48 hr post-AlbuBChE, 20 min after cocaine
[4] = cocaine 1 mg/kg IV 48 hr post-AlbuBChE, 30 min after cocaine
[5] = cocaine 1 mg/kg IV 48 hr post-AlbuBChE, 40 min after cocaine
[6] = cocaine 1 mg/kg IV 48 hr post-AlbuBChE, 60 min after cocaine
[7] = cocaine 1 mg/kg IV 96 hr post-AlbuBChE
[8] = cocaine 1 mg/kg IV 96 hr post-AlbuBChE, 5 min after cocaine
[9] = cocaine 1 mg/kg IV 96 hr post-AlbuBChE, 10 min after cocaine
[10] = cocaine 1 mg/kg IV 96 hr post-AlbuBChE, 15 min after cocaine
[11] = cocaine 1 mg/kg IV 96 hr post-AlbuBChE, 20 min after cocaine
[12] = cocaine 1 mg/kg IV 96 hr post-AlbuBChE, 30 min after cocaine
[13] = cocaine 1 mg/kg IV 96 hr post-AlbuBChE, 40 min after cocaine
[14] = cocaine 1 mg/kg IV 96 hr post-AlbuBChE, 60 min after cocaine
[15] = cocaine 1 mg/kg IV 120 hr post-AlbuBChE
[16] = cocaine 1 mg/kg IV 120 hr post-AlbuBChE, 5 min after cocaine
[17] = cocaine 1 mg/kg IV 120 hr post-AlbuBChE, 10 min after cocaine
[18] = cocaine 1 mg/kg IV 120 hr post-AlbuBChE, 15 min after cocaine
[19] = cocaine 1 mg/kg IV 120 hr post-AlbuBChE, 20 min after cocaine
[20] = cocaine 1 mg/kg IV 120 hr post-AlbuBChE, 30 min after cocaine
[21] = cocaine 1 mg/kg IV 120 hr post-AlbuBChE, 40 min after cocaine
[22] = cocaine 1 mg/kg IV 120 hr post-AlbuBChE, 60 min after cocaine
[23] = cocaine 1 mg/kg IV 240 hr post-AlbuBChE
[24] = cocaine 1 mg/kg IV 240 hr post-AlbuBChE, 5 min after cocaine
[25] = cocaine 1 mg/kg IV 240 hr post-AlbuBChE, 10 min after cocaine
[26] = cocaine 1 mg/kg IV 240 hr post-AlbuBChE, 15 min after cocaine
[27] = cocaine 1 mg/kg IV 240 hr post-AlbuBChE, 20 min after cocaine
[28] = cocaine 1 mg/kg IV 240 hr post-AlbuBChE, 30 min after cocaine
[29] = cocaine 1 mg/kg IV 240 hr post-AlbuBChE, 40 min after cocaine
[30] = cocaine 1 mg/kg IV 240 hr post-AlbuBChE, 60 min after cocaine

With AlbuBChE the “Ecgonine methyl ester plasma concentration (mean)” value [1] was 68.9 ng/mL, the “Mean benzoylecgonine plasma concentration” value [1] was 21.0 ng/mL and the “Mean cocaine plasma concentration” value [1] was 89.9 ng/mL. For the same substance, the “Ecgonine methyl ester plasma concentration (mean)” value [2] was 102 ng/mL, the “Mean benzoylecgonine plasma concentration” value [2] was 24.4 ng/mL and the “Mean cocaine plasma concentration” value [2] was 82.7 ng/mL. The “Ecgonine methyl ester plasma concentration (mean)” value [3] was 107 ng/mL, the “Mean benzoylecgonine plasma concentration” value [3] was 23.7 ng/mL and the “Mean cocaine plasma concentration” value [3] was 49.5 ng/mL. The “Ecgonine methyl ester plasma concentration (mean)” value [4] was 108 ng/mL, the “Mean benzoylecgonine plasma concentration” value [4] was 25.9 ng/mL and the “Mean cocaine plasma concentration” value [4] was 36.7 ng/mL. For the same substance, the “Ecgonine methyl ester plasma concentration (mean)” value [5] was 106 ng/mL, the “Mean benzoylecgonine plasma concentration” value [5] was 25.5 ng/mL and the “Mean cocaine plasma concentration” value [5] was 18.9 ng/mL. The “Ecgonine methyl ester plasma concentration (mean)” value [6] was 108 ng/mL, the “Mean benzoylecgonine plasma concentration” value [6] was 24.4 ng/mL and the “Mean cocaine plasma concentration” value [6] was 5.74 ng/mL. The “Mean benzoylecgonine AUC(0-t)” value [7] was 3222 ng·min/mL, the “Mean cocaine AUC % Extrap” value [7] was 14.2% and the “Mean cocaine AUC(0-t)” value [7] was 6624 ng·min/mL. For the same substance, the “Mean cocaine AUC(0-∞)” value [7] was 7729 ng·min/mL, the “Mean cocaine C0” value [7] was 190 ng/mL and the “Mean cocaine CI” value [7] was 129 mL/min/kg. The “Mean cocaine Vss” value [7] was 4.111 L/kg, the “Mean cocaine t½” value [7] was 21.3 min and the “Ecgonine methyl ester plasma concentration (mean)” value [8] was 100 ng/mL. For the same substance, the “Mean benzoylecgonine plasma concentration” value [8] was 44.2 ng/mL, the “Mean cocaine plasma concentration” value [8] was 176 ng/mL and the “Ecgonine methyl ester plasma concentration (mean)” value [9] was 60.9 ng/mL. The “Mean benzoylecgonine plasma concentration” value [9] was 43.5 ng/mL, the “Mean cocaine plasma concentration” value [9] was 166 ng/mL and the “Ecgonine methyl ester plasma concentration (mean)” value [10] was 82.2 ng/mL. For the same substance, the “Mean benzoylecgonine plasma concentration” value [10] was 49.7 ng/mL, the “Mean cocaine plasma concentration” value [10] was 174 ng/mL and the “Ecgonine methyl ester plasma concentration (mean)” value [11] was 104 ng/mL. For the same substance, the “Mean benzoylecgonine plasma concentration” value [11] was 51.1 ng/mL, the “Mean cocaine plasma concentration” value [11] was 136 ng/mL and the “Ecgonine methyl ester plasma concentration (mean)” value [12] was 111 ng/mL. The “Mean benzoylecgonine plasma concentration” value [12] was 56.1 ng/mL, the “Mean cocaine plasma concentration” value [12] was 99.0 ng/mL and the “Ecgonine methyl ester plasma concentration (mean)” value [13] was 126 ng/mL. For the same substance, the “Mean benzoylecgonine plasma concentration” value [13] was 57.7 ng/mL, the “Mean cocaine plasma concentration” value [13] was 80.6 ng/mL and the “Ecgonine methyl ester plasma concentration (mean)” value [14] was 127 ng/mL. The “Mean benzoylecgonine plasma concentration” value [14] was 60.5 ng/mL, the “Mean cocaine plasma concentration” value [14] was 35.2 ng/mL and the “Mean benzoylecgonine AUC(0-t)” value [15] was 3624 ng·min/mL. The “Mean cocaine AUC % Extrap” value [15] was 14.5%, the “Mean cocaine AUC(0-t)” value [15] was 9378 ng·min/mL and the “Mean cocaine AUC(0-∞)” value [15] was 11046 ng·min/mL. The “Mean cocaine C0” value [15] was 411 ng/mL, the “Mean cocaine CI” value [15] was 93.0 mL/min/kg and the “Mean cocaine Vss” value [15] was 2.857 L/kg. The “Mean cocaine t½” value [15] was 22.3 min, the “Ecgonine methyl ester plasma concentration (mean)” value [16] was 45.5 ng/mL and the “Mean benzoylecgonine plasma concentration” value [16] was 44.6 ng/mL. The “Mean cocaine plasma concentration” value [16] was 298 ng/mL, the “Ecgonine methyl ester plasma concentration (mean)” value [17] was 46.0 ng/mL and the “Mean benzoylecgonine plasma concentration” value [17] was 47.5 ng/mL. For the same substance, the “Mean cocaine plasma concentration” value [17] was 217 ng/mL, the “Ecgonine methyl ester plasma concentration (mean)” value [18] was 96.5 ng/mL and the “Mean benzoylecgonine plasma concentration” value [18] was 50.3 ng/mL. For the same substance, the “Mean cocaine plasma concentration” value [18] was 216 ng/mL, the “Ecgonine methyl ester plasma concentration (mean)” value [19] was 60.1 ng/mL and the “Mean benzoylecgonine plasma concentration” value [19] was 57.3 ng/mL. For the same substance, the “Mean cocaine plasma concentration” value [19] was 161 ng/mL, the “Ecgonine methyl ester plasma concentration (mean)” value [20] was 79.9 ng/mL and the “Mean benzoylecgonine plasma concentration” value [20] was 63.6 ng/mL. The “Mean cocaine plasma concentration” value [20] was 139 ng/mL, the “Ecgonine methyl ester plasma concentration (mean)” value [21] was 122 ng/mL and the “Mean benzoylecgonine plasma concentration” value [21] was 69.5 ng/mL. The “Mean cocaine plasma concentration” value [21] was 113 ng/mL, the “Ecgonine methyl ester plasma concentration (mean)” value [22] was 187 ng/mL and the “Mean benzoylecgonine plasma concentration” value [22] was 69.2 ng/mL. For the same substance, the “Mean cocaine plasma concentration” value [22] was 49.5 ng/mL, the “Mean benzoylecgonine AUC(0-t)” value [23] was 5088 ng·min/mL and the “Mean cocaine AUC % Extrap” value [23] was 29.2%. The “Mean cocaine AUC(0-t)” value [23] was 12952 ng·min/mL, the “Mean cocaine AUC(0-∞)” value [23] was 18578 ng·min/mL and the “Mean cocaine C0” value [23] was 424 ng/mL. For the same substance, the “Mean cocaine CI” value [23] was 55.6 mL/min/kg, the “Mean cocaine Vss” value [23] was 2.637 L/kg and the “Mean cocaine t½” value [23] was 33.8 min. The “Ecgonine methyl ester plasma concentration (mean)” value [24] was 127 ng/mL, the “Mean benzoylecgonine plasma concentration” value [24] was 44.9 ng/mL and the “Mean cocaine plasma concentration” value [24] was 346 ng/mL. For the same substance, the “Ecgonine methyl ester plasma concentration (mean)” value [25] was 26.1 ng/mL, the “Mean benzoylecgonine plasma concentration” value [25] was 56.4 ng/mL and the “Mean cocaine plasma concentration” value [25] was 283 ng/mL. For the same substance, the “Ecgonine methyl ester plasma concentration (mean)” value [26] was 30.7 ng/mL, the “Mean benzoylecgonine plasma concentration” value [26] was 71.9 ng/mL and the “Mean cocaine plasma concentration” value [26] was 283 ng/mL. For the same substance, the “Ecgonine methyl ester plasma concentration (mean)” value [27] was 35.1 ng/mL, the “Mean benzoylecgonine plasma concentration” value [27] was 83.4 ng/mL and the “Mean cocaine plasma concentration” value [27] was 226 ng/mL. For the same substance, the “Ecgonine methyl ester plasma concentration (mean)” value [28] was 49.6 ng/mL, the “Mean benzoylecgonine plasma concentration” value [28] was 88.4 ng/mL and the “Mean cocaine plasma concentration” value [28] was 211 ng/mL. The “Ecgonine methyl ester plasma concentration (mean)” value [29] was 53.1 ng/mL, the “Mean benzoylecgonine plasma concentration” value [29] was 101 ng/mL and the “Mean cocaine plasma concentration” value [29] was 161 ng/mL. The “Ecgonine methyl ester plasma concentration (mean)” value [30] was 58.0 ng/mL, the “Mean benzoylecgonine plasma concentration” value [30] was 108 ng/mL and the “Mean cocaine plasma concentration” value [30] was 111 ng/mL. The “AlbuBChE activity (cocaine concentrations vs Day 1 control)” value (240 hr post-AlbuBChE administration of 0.2, 1 or 5 mg/kg) was “not active”.
